Data: paper PMC13544220, “Glycemic and bodyweight effects of GIPR coding variation reflect differences in surface expression and intrinsic functional impairment” (Science Advances, 2026)

What was measured:
Format in all cases: cell-based, human
[1] = tested on: wild-type and variant SNAP-GIPR; assay: Surface SNAP-GIPR expression (SNAP-tag labelling) in AD293 cells; settings: for AD293 Surface: Fig S3E, mean; for Surface SNAP-GIPR expression: sheet Fig 1C;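 on all read-outs here: scaled to the experimental average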
Summary of the method: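 Read-out: whole-cell fluorescence of surface-only SNAP label (Alexa Fluor 647, 500 nM, 10 min, RT), wide-field 20X, several FOVs per well. Flat-field corrected, phase-contrast masked, nontransfected-well signal subtracted; normalized to experiment mean or wild-type.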

[2] = tested on: wild-type and variant SNAP-GIPR; assay: cADDis cAMP imaging in AD293 cells, ensemble, expression-matched and per decile; settings: Fig S3F, cADDis, mean
Protocol: AD293 cells were reverse transfected with the GIPR variant or wild-type plasmids using Lipofectamine 2000 and cotransduced with the cADDis Green Up BacMam (10 μl per well, Montana Molecular, USA), in 96-well, poly-D-lysine–coated microplates. All variants were tested in parallel on each occasion to control for transfection efficiency differences between experiments. After 24 hours, cells were labeled using 500 nM SNAP-Surface Alexa Fluor 647 for 10 min at room temperature. Cells were washed three times and then imaged in KRBH buffer containing 6 mM glucose and 0.1% BSA. Imaging was performed at 37°C by wide-field microscopy using the same microscope as in the “Assessment of surface GIPR expression by SNAP-tag labeling in cell lines” section, with 9 FOVs for both cADDis and SNAP-Surface fluorescence acquired from each well using a 10X, 0.45 NA air objective. […] Flat-field correction was performed using BaSiC ([72]), drift correction was performed using SIFT, and a maximum intensity projection of the cADDis channel was used to segment individual cells. cAMP responses were determined by quantifying the cADDis fluorescence intensity for each cell at each time point. Nonviable cells or noncell objects were excluded according to criteria for allowable cell IBMX/FSK responses. […] The cADDis mask was then used to quantify the SNAP-Surface signal from each cell. Wild-type SNAP-Surface readings were split into deciles, and these deciles were subsequently used to categorize variant-transfected cells to match against the wild type. After trimming the top and bottom deciles, the mean was taken of each decile mean for surface expression level or cAMP response, which achieved matched expression levels by effectively applying an inverse weighting to counteract differences in cell number in each decile for different variants. Ensemble expression levels or cAMP responses were calculated without regard to deciles. Variant cADDis responses were also analyzed within their own surface expression deciles.

[3] = tested on: wild-type and variant SNAP-GIPR; assay: Single-concentration GIP cAMP response by HTRF in AD293 cells; settings: Fig S3F, HTRF, mean;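 further: ratio to experiment-wide average response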
Protocol: (§1) All variants were tested in parallel on each occasion to control for transfection efficiency differences between experiments.

[4] = tested on: wild-type and variant SNAP-GIPR; assay: Constitutive and agonist-mediated internalization, reversible SNAP-tag labelling, AD293 cells; parameters: key to Internalisation, Vehicle / Internalisation, +GIP / Internalisation, GIP-only: % internalization: residual fluorescence after Mesna vs pre-Mesna; Surface expression: unit not given here; settings: Mean
Protocol: (§2) Twenty-four hours before the experiment, AD293 or INS-1 cells were reverse transfected with GIPR variant or wild-type plasmids using Lipofectamine 2000 in 96-well, clear-bottom, black microplates precoated with poly-D-lysine. All variants were tested in parallel on each occasion to control for transfection efficiency differences between experiments. […] Media were then removed, cells washed with PBS and then placed in TNE buffer (pH 8.6) for imaging. […] After 10 min, the well was reimaged again to detect remaining fluorescence from internalized GIPR. Images were analyzed as in the “Assessment of surface GIPR expression by SNAP-tag labeling in cell lines” section, with the residual specific fluorescence after Mesna treatment expressed relative to the pre-Mesna value to establish percentage internalization.

[5] = tested on: wild-type and variant SNAP-GIPR; assay: Constitutive and agonist-mediated internalization, reversible SNAP-tag labelling, INS-1 cells; parameters: key to Internalisation, GIP-only / Internalisation, Vehicle / Internalisation, +GIP: % internalization: residual fluorescence after Mesna vs pre-Mesna; settings: Mean
Protocol: as §2

[6] = tested on: wild-type and variant SNAP-GIPR; assay: Single-concentration GIP cAMP response by HTRF in INS-1 cells; settings: Fig S3E, mean
Protocol: as §1

[7] = tested on: wild-type and variant SNAP-GIPR; assay: Surface SNAP-GIPR expression (SNAP-tag labelling) in INS-1 cells; settings: Fig 4G; Mean
Protocol: Twenty-four hours before the experiment, AD293 or INS-1 cells were reverse transfected with GIPR variant or wild-type plasmids using Lipofectamine 2000 in 96-well, clear-bottom, black microplates precoated with poly-D-lysine. All variants were tested in parallel on each occasion to control for transfection efficiency differences between experiments. Cells were then labeled using the cell-impermeant probe SNAP-Surface Alexa Fluor 647 (500 nM, New England Biolabs, USA) for 10 min at room temperature to label only surface GIPR. […] Several fields of view (FOVs) were acquired within each well using a 20X, 0.75–numerical aperture (NA) air objective. Surface GIPR fluorescence was quantified after flat-field correction using BaSiC ([72]) and segmenting using Phantast ([73]), which generates a mask based on the phase contrast images to demarcate cell versus noncell. Wide-field imaging of the surface-specific labeling achieved by SNAP-Surface probes means that surface expression can be established from whole-cell fluorescence, after subtracting nonspecific fluorescence from a separate well containing nontransfected cells processed in parallel from the same experiment. Data were normalized by dividing by the average specific signal across each experiment, or by the wild-type value, as indicated in the figure legends.

B1: T116R (protein, UniProt P48546 22-466, looked up, variant T116R)
Gastric inhibitory …: RAETGSKGQTAGELYQRWERYRRECQETLAAAEPPSGLACNGSFDMYVCWDYAAPNATARASCPWYLPWHHHVAAGFVLRQCGSDGQWGLWRDHRQCENPEKNEAFLDQRLILERLQVMYTVGYSLSLATLLLALLILSLFRRLHCTRNYIHINLFTSFMLRAAAILSRDRLLPRPGPYLGDQALALWNQALAACRTAQIVTQYCVGANYTWLLVEGVYLHSLLVLVGGSEEGHFRYYLLLGWGAPALFVIPWVIVRYLYENTQCWERNEVKAIWWIIRTPILMTILINFLIFIRILGILLSKLRTRQMRCRDYRLRLARSTLTLVPLLGVHEVVFAPVTEEQARGALRFAKLGFEIFLSSFQGFLVSVLYCFINKEVQSEIRRGWHHCRLRRSLGEEQRQLPERAFRALPSGSGPGEVPTSRGLSSGTLPGPGNEASRELESYC
- AD293 Surface ([1]; column repeated, paired with cAMP 100 nM): 1.324
- AD293 Surface ([1]; paired with cAMP 100 pM): 1.324
- Surface SNAP-GIPR expression ([1]; replicate 1): 1.245
- Surface SNAP-GIPR expression ([1]; replicate 2): 1.023
- Surface SNAP-GIPR expression ([1]; replicate 3): 0.6735
- Surface SNAP-GIPR expression ([1]; replicate 4): 1.28
- Surface SNAP-GIPR expression ([1]; replicate 5): 0.9777
- Surface SNAP-GIPR expression ([1]; replicate 6): 1.324
- Surface SNAP-GIPR expression ([1]; replicate 7): 1.095
- Surface SNAP-GIPR expression ([1]; replicate 8): 1.165
- Surface SNAP-GIPR expression ([1]; replicate 9): 1.067
- Surface SNAP-GIPR expression ([1]; replicate 10): 1.216
- Surface SNAP-GIPR expression ([1]; replicate 11): 0.8978
- Surface SNAP-GIPR expression ([1]; replicate 12): 1.007
- Surface SNAP-GIPR expression ([1]; replicate 13): 1.293
- Surface SNAP-GIPR expression ([1]; replicate 14): 1.058
- Surface SNAP-GIPR expression ([1]; replicate 15): 1.321
- Surface SNAP-GIPR expression ([1]; replicate 16): 1.079
- Surface SNAP-GIPR expression ([1]; replicate 17): 1.526
- Surface SNAP-GIPR expression ([1]; replicate 18): 1.463
- Surface SNAP-GIPR expression ([1]; replicate 19): 1.041
- Surface SNAP-GIPR expression ([1]; replicate 20): 1.229
- Surface SNAP-GIPR expression ([1]; replicate 21): 1.037
- Surface SNAP-GIPR expression ([1]; replicate 22): 1.307
- Surface SNAP-GIPR expression ([1]; replicate 23): 1.273
- Surface SNAP-GIPR expression ([1]; replicate 24): 1.448
- Surface SNAP-GIPR expression ([1]; replicate 25): 1.438
- Surface SNAP-GIPR expression ([1]; replicate 26): 1.564
- Surface SNAP-GIPR expression ([1]; replicate 27): 1.467
- Surface SNAP-GIPR expression ([1]; replicate 28): 1.252
- Surface SNAP-GIPR expression ([1]; replicate 29): 1.566
- Surface SNAP-GIPR expression ([1]; replicate 30): 1.334
- Surface SNAP-GIPR expression ([1]; replicate 31): 1.686
- Surface SNAP-GIPR expression ([1]; replicate 32): 1.692
- Surface SNAP-GIPR expression ([1]; replicate 33): 1.307
- Surface SNAP-GIPR expression ([1]; replicate 34): 1.109
- Surface SNAP-GIPR expression ([1]; replicate 35): 1.705
- Surface SNAP-GIPR expression ([1]; replicate 36): 1.374
- Surface SNAP-GIPR expression ([1]; replicate 37): 1.911
- Surface SNAP-GIPR expression ([1]; replicate 38): 1.787
- Surface SNAP-GIPR expression ([1]; replicate 39): 1.944
- Surface SNAP-GIPR expression ([1]; replicate 40): 1.676
- Surface SNAP-GIPR expression ([1]; replicate 41): 1.421
- AD293 100 pM cADDis ([2]; AD293, 100 pM): 33.6456
- AD293 100 nM cADDis ([2]; AD293, 100 nM): 38.18
- AD293 100 pM HTRF ([3]; AD293, 100 pM): 0.9665
- AD293 100 nM HTRF ([3]; AD293, 100 nM): 1.485
- +GIP internalisation (100 nM) ([4]; Fig 4E, GIP 100 nM): 0.9677
- GIP-specific internalisation (100 nM) ([4]; Fig 4E, GIP 100 nM): 0.2939
- Constitutive internalisation (100 nM) ([4]; Fig 4E): 0.6738
- Surface expression ([4]; Fig 4E): 1.687
- Internalisation, +GIP ([4]; Fig S4C, AD293): 57.3525
- Internalisation, GIP-only ([4]; Fig S4C, AD293): 17.4551
- Internalisation, Vehicle ([4]; Fig S4C, AD293): 39.8973
- +GIP internalisation (100 nM) ([5]; Fig 4G, GIP 100 nM): 0.7228
- GIP-specific internalisation (100 nM) ([5]; Fig 4G, GIP 100 nM): 0.1652
- Constitutive internalisation (100 nM) ([5]; Fig 4G): 0.5577
- Internalisation, +GIP ([5]; Fig S4C, INS-1): 48.6183
- Internalisation, GIP-only ([5]; Fig S4C, INS-1): 11.125
- Internalisation, Vehicle ([5]; Fig S4C, INS-1): 37.4933
- INS-1 cAMP (100 nM) [6]: 1.507
- Surface expression [7]: 1.428
